Data reported in patent US20230313187A1, “MODIFICATIONS OF MAMMALIAN CELLS USING ARTIFICIAL MICRO-RNA TO ALTER THEIR PROPERTIES AND THE COMPOSITIONS OF THEIR PRODUCTS” (DNA TWOPOINTO INC., priority 2020, published 2023).
“And” between values parts separate entries of the source, which are not always exact repeats. Equal values may be shown once.

Key:
[1] = tested on: Homo sapiens alpha-(1,6)-fucosyl transferase (FUT8) mRNA; assay: Inhibition of antibody fucosylation in HEK cell pools, amiRNA directed toward FUT8; format: cell-based
Description: Two different multi-hairpin amiRNA sequences were designed to target genes involved in the fucosylation pathway in human cells: alpha-(1,6)-fucosyl transferase (FUT8), GDP-Mannose 4,6-dehydratase (GMD), and GDP-fucose transporter 1 (GFT). One Multi-hairpin amiRNA, with nucleotide sequence SEQ ID NO: 202 comprised three hairpins; the first hairpin comprised guide strand sequence SEQ ID NO: 29, immediately followed by loop sequence SEQ ID NO: 241 and passenger strand sequence SEQ ID NO: 114, the second hairpin comprised guide strand sequence SEQ ID NO: 30, immediately followed by loop sequence SEQ ID NO: 241 and passenger strand sequence SEQ ID NO: 115, the third hairpin comprised guide strand sequence SEQ ID NO: 31, immediately followed by loop sequence SEQ ID NO: 241 and passenger strand sequence SEQ ID NO: 116. Each of these three guide strand sequences was a 22 base sequence that was an exact reverse complement of a different region within the Homo sapiens alpha-(1,6)-fucosyl transferase (FUT8) mRNA. Each passenger strand sequence was complementary to its corresponding guide strand sequence, except that the bases in the passenger strand sequences corresponding to the 5′ base of the guide strand and the twelfth base of the guide strand were changed to be non-complementary. The first and twelfth bases of guide strand with SEQ ID NO: 29 are T and T respectively, the corresponding bases in the corresponding passenger strand sequence SEQ ID NO: 114 are C and C respectively. The first and twelfth bases of guide strand with SEQ ID NO: 30 are T and T respectively, the corresponding bases in the corresponding passenger strand sequence SEQ ID NO: 115 are C and C respectively. The first and twelfth bases of guide strand with SEQ ID NO: 31 are T and A respectively, the corresponding bases in the corresponding passenger strand sequence SEQ ID NO: 116 are C and C respectively. Each hairpin in multi-hairpin amiRNA nucleotide sequence SEQ ID NO: 202 further comprised additional stem-stabilizing sequences, with stem sequence SEQ ID NO: 255 immediately preceding the guide strand sequence, and stem sequence SEQ ID NO: 256 immediately following the passenger strand sequence. Multi-hairpin amiRNA nucleotide sequence SEQ ID NO: 202 further comprised an unstructured sequence with SEQ ID NO: 251 to the 5′ of the first hairpin, and an unstructured sequence with SEQ ID NO: 253 to the 3′ of the third hairpin. […]
The multi-hairpin amiRNA sequences were placed to the 3′ of an open reading frame encoding a red fluorescent protein (with nucleotide sequence SEQ ID NO: 279) and followed by a rabbit globin polyadenylation sequence. […]

[2] = tested on: Cricetulus griseus interferon receptor subunit 1 mRNA and subunit 2 mRNA; assay: Expression of human interferon beta from CHO cells (ELISA), amiRNA to both interferon receptor subunits; format: cell-based; conditions: for Average Titer: average of duplicate cultures; for interferon beta expression compared with the control transposon: control transposon expressed 48 μg/ml; for Titer: 10-day fed batch
Description: One multi-hairpin amiRNA, with nucleotide sequence SEQ ID NO: 600, comprised five hairpins; the first hairpin comprised a guide strand with nucleotide sequence SEQ ID NO: 103, immediately followed by a loop with nucleotide sequence SEQ ID NO: 241 and passenger strand with nucleotide sequence SEQ ID NO: 188; the second hairpin comprised a guide strand with nucleotide sequence SEQ ID NO: 95, immediately followed by a loop with nucleotide sequence SEQ ID NO: 241 and passenger strand with nucleotide sequence SEQ ID NO: 180; the third hairpin comprised a guide strand with nucleotide sequence SEQ ID NO: 104, immediately followed by a loop with nucleotide sequence SEQ ID NO: 241 and a passenger strand with nucleotide sequence SEQ ID NO: 189; the fourth hairpin comprised a guide strand with nucleotide sequence SEQ ID NO: 97, immediately followed by a loop with nucleotide sequence SEQ ID NO: 241 and a passenger strand with nucleotide sequence SEQ ID NO: 182; the fifth hairpin comprised a guide strand with nucleotide sequence SEQ ID NO: 102, immediately followed by a loop with nucleotide sequence SEQ ID NO: 241 and a passenger strand with nucleotide sequence SEQ ID NO: 187. Two of these five guide strand sequences were a 22 base sequence that was an exact reverse complement of a different region within the Cricetulus griseus interferon receptor subunit 1 mRNA (with nucleotide sequence SEQ ID NO: 19); three of these five guide strand sequences were a 22 base sequence that was an exact reverse complement of a different region within the Cricetulus griseus interferon receptor subunit 2 mRNA (with nucleotide sequence SEQ ID NO: 20). Each passenger strand sequence was complementary to its corresponding guide strand sequence, except that the bases in the passenger strand sequences corresponding to the 5′ base of the guide strand and the twelfth base of the guide strand were changed to be non-complementary.
One multi-hairpin amiRNA, with nucleotide sequence SEQ ID NO: 601, comprised four hairpins; the first hairpin comprised a guide strand with nucleotide sequence SEQ ID NO: 101, immediately followed by a loop with nucleotide sequence SEQ ID NO: 241 and passenger strand with nucleotide sequence SEQ ID NO: 186; the second hairpin comprised a guide strand with nucleotide sequence SEQ ID NO: 99, immediately followed by a loop with nucleotide sequence SEQ ID NO: 241 and passenger strand with nucleotide sequence SEQ ID NO: 184; the third hairpin comprised a guide strand with nucleotide sequence SEQ ID NO: 102, immediately followed by a loop with nucleotide sequence SEQ ID NO: 241 and a passenger strand with nucleotide sequence SEQ ID NO: 187; the fourth hairpin comprised a guide strand with nucleotide sequence SEQ ID NO: 106, immediately followed by a loop with nucleotide sequence SEQ ID NO: 241 and a passenger strand with nucleotide sequence SEQ ID NO: 191. Two of these four guide strand sequences were a 22 base sequence that was an exact reverse complement of a different region within the Cricetulus griseus interferon receptor subunit 1 mRNA (with nucleotide sequence SEQ ID NO: 19); two of these four guide strand sequences were a 22 base sequence that was an exact reverse complement of a different region within the Cricetulus griseus interferon receptor subunit 2 mRNA (with nucleotide sequence SEQ ID NO: 20). Each passenger strand sequence was complementary to its corresponding guide strand sequence, except that the bases in the passenger strand sequences corresponding to the 5′ base of the guide strand and the twelfth base of the guide strand were changed to be non-complementary. […]

[3] = interferon beta in supernatant, first of duplicate cultures
[4] = interferon beta, second of duplicate cultures

Molecule | G0 + G1 % (area) ([1]; afucosylated antibody, HEK pool, 7-day transient culture, listed as 202) | Titer ([1]; antibody in culture supernatant, HEK pool, 7-day culture, listed as 202) | reduction of antibody fucosylation ([1]; both replicates of HEK cell pools (Table 3 rows 3 and 4)) | G0F + G1F (% area) ([1]; fucosylated antibody, HEK pool, 7-day transient culture, listed as 202) | Average Titer [2] [µg/mL] | interferon beta expression compared with the control transposon [2] | Titer [2, 3] [µg/mL] | Titer [2, 4] [µg/mL]
SEQ ID NO: 202: three-hairpin amiRNA, guides SEQ ID NOs 29, 30, 31 complementary to Homo sapiens FUT8 mRNA (nucleic acid) ATCTGATCTTCTGAAGAAAATATATTTCTTTTTATTCATAGCTCTTAACTAGTGGTGATAGCAATGTCAGCAGTGCCTTTGGTCGTTTATCTCTTCCATCGTGAAGCCACAGATGGATGGAAGAGCTAAACGACCACAAGTAAGGTTGACCATACTCTACTCTAGAGTTGTGTTTTAATGTATATTAATGTTACTAATGTGTTTACTAGTGGTGATAGCAATGTCAGCAGTGCCTTTCATCTACAGTTTGGCTGAAAGTGAAGCCACAGATGTTTCAGCCAACCTGTAGATGACAAGTAAGGTTGACCATACTCTACTCTAGGTTATTTTTAGTATGATTCTGTAAAAATGAATTAATACTAACTAGTGGTGATAGCAATGTCAGCAGTGCCTTTAAATTACACAATATGGCAGTGTGAAGCCACAGATGACTGCCATATCGTGTAATTTACAAGTAAGGTTGACCATACTCTACTCTAGTCAGTTTTATTGATAGTCTTTTCAGTATTATTGATAATCTT | 90 % (area) and 89 % (area) | 353 mg/L and 316 mg/L | approximately 90% | 10 % area and 11 % area | – | – | – | –
SEQ ID NO: 600: five-hairpin amiRNA, two guides to interferon receptor subunit 1 mRNA and three to subunit 2 mRNA (nucleic acid) ATCTGATCTTCTGAAGAAAATATATTTCTTTTTATTCATAGCTCTTAACTAGTGGTGATAGCAATGTCAGCAGTGCCTAAGACTATCAGCAAGAACCAGGGTGAAGCCACAGATGCCTGGTTCTTACTGATAGTCTCAAGTAAGGTTGACCATACTCTACTCTAGTTATATTCTTTAGGCACGAATGTGTGTTTAAAAAAAATAAAAACTAGTGGTGATAGCAATGTCAGCAGTGCCTTAAAATAACACACAAGAGCCATGTGAAGCCACAGATGATGGCTCTTGCGTGTTATTTTCAAGTAAGGTTGACCATACTCTACTCTAGAGTTGTGTTTTAATGTATATTAATGTTACTAATGTGTTTACTAGTGGTGATAGCAATGTCAGCAGTGCCTTTGAAGATAACTTTGTCCCCGGGTGAAGCCACAGATGCCGGGGACAACGTTATCTTCACAAGTAAGGTTGACCATACTCTACTCTAGGTTATTTTTAGTATGATTCTGTAAAAATGAATTAATACTAACTAGTGGTGATAGCAATGTCAGCAGTGCCTTTAAACAGTAAGTAGTCTCTGGGTGAAGCCACAGATGCCAGAGACTAATTACTGTTTACAAGTAAGGTTGACCATACTCTACTCTAGATTTTTCAGATGTATCATCTCTTAAAATACTGTAATTGCAACTAGTGGTGATAGCAATGTCAGCAGTGCCTTAAACAACAATGGATCCCCAAAGTGAAGCCACAGATGTTTGGGGATCAATTGTTGTTTCAAGTAAGGTTGACCATACTCTACTCTAGTCAGTTTTATTGATAGTCTTTTCAGTATTATTGATAATCTT | – | – | – | – | 79.8 | as much as twice the expression levels of interferon beta as the control transposon | 80.3 | 79.2
SEQ ID NO: 601: four-hairpin amiRNA, two guides to interferon receptor subunit 1 mRNA and two to subunit 2 mRNA (nucleic acid) ATCTGATCTTCTGAAGAAAATATATTTCTTTTTATTCATAGCTCTTAACTAGTGGTGATAGCAATGTCAGCAGTGCCTTAGTGTAGACAACAGTACCTCTGTGAAGCCACAGATGAGAGGTACTATTGTCTACACTCAAGTAAGGTTGACCATACTCTACTCTAGTTATATTCTTTAGGCACGAATGTGTGTTTAAAAAAAATAAAAACTAGTGGTGATAGCAATGTCAGCAGTGCCTTTCCACGTCTGTCTTGTCCTACGTGAAGCCACAGATGGTAGGACAAGCCAGACGTGGACAAGTAAGGTTGACCATACTCTACTCTAGAGTTGTGTTTTAATGTATATTAATGTTACTAATGTGTTTACTAGTGGTGATAGCAATGTCAGCAGTGCCTTAAACAACAATGGATCCCCAAAGTGAAGCCACAGATGTTTGGGGATCAATTGTTGTTTCAAGTAAGGTTGACCATACTCTACTCTAGGTTATTTTTAGTATGATTCTGTAAAAATGAATTAATACTAACTAGTGGTGATAGCAATGTCAGCAGTGCCTTAACACAGTACCGCCTTAGTGCGTGAAGCCACAGATGGCACTAAGGCAGTACTGTGTTCAAGTAAGGTTGACCATACTCTACTCTAGTCAGTTTTATTGATAGTCTTTTCAGTATTATTGATAATCTT | – | – | – | – | 88.0 | as much as twice the expression levels of interferon beta as the control transposon | 97.3 | 78.6
